According to paper PMC7736253 (Nature plants, 2020):

Key:
[1] = molecular target: Rubisco holoenzyme (native Rubisco purified from Chlamydomonas cells) (Chlamydomonas reinhardtii (endogenous in strain cMJ030)) (UniProt P00877); assay: SPR
[2] = molecular target: Rubisco holoenzyme (native Rubisco purified from Chlamydomonas cells) (Chlamydomonas reinhardtii (endogenous in strain cMJ030)) (UniProt P00877); assay: cryo-EM structure
[3] = molecular target: the molecule itself; assay: cryo-EM structure

Molecule	Kd [1] [µM]	stoichiometry N [2]	stoichiometry N [3]
EPYC1_(49-72) peptide	3000	< 8	–
EPYC1_(106-135) peptide	–	< 8	–
Rubisco large subunit (in the native holoenzyme) (natural protein, UniProt P00877 3-475, looked up) PQTETKAGAGFKAGVKDYRLTYYTPDYVVRDTDILAAFRMTPQLGVPPEECGAAVAAESSTGTWTTVWTDGLTSLDRYKGRCYDIEPVPGEDNQYIAYVAYPIDLFEEGSVTNMFTSIVGNVFGFKALRALRLEDLRIPPAYVKTFVGPPHGIQVERDKLNKYGRGLLGCTIKPKLGLSAKNYGRAVYECLRGGLDFTKDDENVNSQPFMRWRDRFLFVAEAIYKAQAETGEVKGHYLNATAGTCEEMMKRAVCAKELGVPIIMHDYLTGGFTANTSLAIYCRDNGLLLHIHRAMHAVIDRQRNHGIHFRVLAKALRMSGGDHLHSGTVVGKLEGEREVTLGFVDLMRDDYVEKDRSRGIYFTQDWCSMPGVMPVASGGIHVWHMPALVEIFGDDACLQFGGGTLGHPWGNAPGAAANRVALEACTQARNEGRDLAREGGDVIRSACKWSPELAAACEVWKEIKFEFDTIDKL	–	–	8
